Source: paper PMC8142631

Legend:
[1] = target: Soluble wild-type EPCR (endothelial protein C receptor) (UniProt Q9UNN8)
[2] = target: E86A-sEPCR (soluble EPCR variant) (UniProt Q9UNN8); assay: ELISA
[3] = target: Soluble wild-type EPCR (endothelial protein C receptor) (UniProt Q9UNN8); assay: ELISA
[4] = target: endogenous EPCR expressed on EA.hy926 cells (human (endogenous in EA.hy926)) (UniProt Q9UNN8); assay: on-cell western
[5] = target: endogenous EPCR expressed on EA.hy926 cells (human (endogenous in EA.hy926)) (UniProt Q9UNN8); assay: binding to cells, read-out not stated

How did the CIDRα1.1 concentration at complete inhibition of APC binding to sEPCR [1] turn out when “recombinant CIDRα1.1 domain derived from FCR3 IT4VAR20 PfEMP1 (domain or fragment)” was run?
The CIDRα1.1 concentration at complete inhibition of APC binding to sEPCR was 50 nM.

What about the IC50 [1] of the same substance?
Its IC50 is 12.5 nM.

What about the Kd [2] of the same substance?
The Kd was 4.4 nM.

What about the Kd [3] of the same substance?
Its Kd is 4.3 nM.

And the Kd [4]?
Its Kd is 8 nM.

And the CIDRα1.1 concentration at complete inhibition of APC binding to endothelial EPCR [5]?
The CIDRα1.1 concentration at complete inhibition of APC binding to endothelial EPCR was 100 nM.

And the IC50 [5]?
The IC50 was 33 nM.
